This is an account of results in the nanobody polyreactivity screen of Harvey et al. (2022).

The nature of the data set: yeast display, Sf9 membrane polyspecificity reagent, FACS + sequencing; frameworks hold sequencing errors. The gist of the method:
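A synthetic nanobody library was expressed on Saccharomyces cerevisiae BJ5465 by galactose induction for 36–48 hours. The library was stained for 1 hour at 4 °C with 10% biotinylated, detergent-solubilized Sf9 membrane reagent and enriched with streptavidin microbeads before FACS. Low and high (top ~1%) gates were set on anti-HA fluorescence for expression and streptavidin fluorescence for reagent binding, and each polyreactivity label reflects the gate of origin.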
As to “QVQLVESGGGLVQAGGSLRLSCAASGFTLSYYAMGWYRPAPGKEREFVAAIRTSGTSTYYADSVKGRFTISRDNAKNTVYLQMNSLKPEDTAVYYCAVARGSGWYWRSDYWGQGTQVTVSS”, the “polyreactivity (PSR sort gate)” value is “high polyreactivity”. In the case of “QVQLVESGGGLVQAGGSLRLSCAASGRIFTRYAMGWYRQAPGKERELVAAISYGGGGTYYADSVKGRFTISRDNAKNTVYLQMNSLKPEDTAVYYCATDDPLSQINEQGMDYWGQGTQVTVSS”, the “polyreactivity (PSR sort gate)” value is “low polyreactivity”. Take “QVQLVQTGGGLVQAGGSLRLSCAASGRIFYRYDMGCYRQAPGKERSLVAAIRYSGGRTYYADSVKGRFTISRDNAKNTVYLQMNSLKPEDNAVYYCADDEFFWSSEEDYWGQVTQVTVSS”: the “polyreactivity (PSR sort gate)” value is on record as “low polyreactivity”. “QVQLVESGGGLVQAGGSLRLSCAASGRTFGYNAMGWYRQAPGKERELVAAISSSGGSTYYADSVKGRFTISRDNAKNTVYLQMNSLKPEDTAVYYCATQGYSWAHGSDYWGQGTQVTVSS”: the “polyreactivity (PSR sort gate)” value was “low polyreactivity”. With “QVQLVESGGGLVQAGGSLRLSCAASGFTFVRNAMGWYRQAPGKERELVAAISDRGGTYYADSVKGRFTISRDNAKNTVYLQMNSLKPEDTAVYYCAAKYWYPYQYSHGSFYYWGQVTQVTVSS” the entry was “high polyreactivity”; with “QVQLVESGGGLVQEGGSLRLSCSASGSIFYVYAMGRYRPARGKDRELVAAISSIDGNTYYADSVKGRFTISRDNAKNTVYLQMNSLKPEETAVYYCAAAYYNTDYYYWGKGTQVTVSS”, “low polyreactivity”. The same measure for “QVQLVESGGGLVQAGGSLRLSCAASGSIFTWNAMGWYRQAPGKERELVAAISWIGDSTYYADSVKGRFTISRDNAKNTVYLQMNSLKPEDTAVYYCAAEYAQGSRELESWGQGTQVTVSS”: “low polyreactivity”. With “QVQLVESGGGLVQAGGSLRLSCAASGRTFYFNGMGWYRQAPGKERELVATITASGTITYYADSVKGRFTISRDNAKNTVYLQMNSLKPEDTAVYYCAARQRGYYYSRSYDYWGQGTQVTVSS” the entry was “high polyreactivity”; with “QVQLVESGGGLVQAGGSLRLICDASGFTFSPNAMGWYRQAPGKERELVAAIDWSGDRTYYADSVKGRFTISRDNAKNTVYLQMNSLKPEDTAVYYCNDVRRSPGDYSYYYWGQGTQVTVSS”, “low polyreactivity”. With “QVQLVESGGGLVQAGGSLRLSCDASGRTFLRNTMGWYRQAPGKERELVAAISRSGATTYYADSVKGRFTISRDNAKNTVYLQMNTLKPEDTADYYCAAAYRGREVEYNSWGQGTQVTVSS”, the “polyreactivity (PSR sort gate)” value was “high polyreactivity”. “QVQLVESGGGLVQAGGSLRLSSAASGRTFDAYAMGWNRQAPGKERELVAAISGRGGSTTYADSVKGRFTISRDNAKNTVYLQMNSLKPEDTAVYYCAARYPPRFGVVRGYSRSGYWGQGTQVTVSS”: the “polyreactivity (PSR sort gate)” value is recorded as “high polyreactivity”. With “QVQLVESGGGIVQAGGSLRVSCAASGRIFRRHNMGWYRQAPGKERELVAAITSSGGSTYADSVKGRFTISRDNAQNTVYLQMNSLKPEDTAVYYCATYVAYHRGYRTYDHWGQGTQVTVSS” the entry was “low polyreactivity”; with “QVQLVESVGGLVQAGGSLRLSCAASGSIIYHYPMGWYRHAPGKEAELVAAIYTTAGDTYYADSVKGRFTISRDNAKNTVYLQMNCLKPEDTAVYYCNASSSYFYYVRYDHWGQGTQVTVSS”, “low polyreactivity”; with “QVQLVESGGGLVQAGGSLRLSCAASGITFGGNAMGWYRQAPGKERELVAAISRRGGSTYYADSVKGRFTISRDNAKNTVYLQMNSLKPEDTAVYYCAAYDPVNSPGYDYWGQGTQVTVSS”, “high polyreactivity”. With “QVQLVESGGGLDQAGGSLLLSCPASGRTFGTYAMGLYRQAPGKERELVASITSGDSTNYADSVKGRFTISRDNAKYTVYLQMNSQKPEDTAVYYCNASGYVMVTPPKLSFNYEYWGQGTQVTVSS” the entry was “low polyreactivity”; with “QVQLESGGGLVQAGGSLRLRCEASGITFQLYDMGWYRQAPGKERELVAAINSSGGSTYYADSVKGRFTISRDNAKNTVYLQMNSLKPEDTAVYYCNVGFAPVTNDQPVSTEYDYWGQGTQVTVSS”, “low polyreactivity”; with “QVQRVESGGGLVQAGGSLRLSCAASGLIFYRYVMGWYRQAPGKETELVAAISGNGASTYYADSVKGRFTISRDNAKNTVYLQMHSLKPEDTAVYYCNADVYVSSKTHSSSPQWWGYDYWGQGTQVTVSS”, “low polyreactivity”.

Consider “QVQLVESGGGLVQAGGSLRLSCAASGRIFTRYAMGWYRPAPGKERELVAVIRYSGGSTYYADSVKGRFTISRDNAKNTVYLQMNSLKPEDTAVYYCAAYARGVRRYRRYDYWGQGTQVTVSS”, for which the “polyreactivity (PSR sort gate)” value is “high polyreactivity”.

Turning to “QVQLVESGGGLVQAGGSLRLSCAASGRIFTYNAMGWSRQAPGKERELVATITNGGRTYYADSVKGRFTISRDNAKNTVYLQMNSLKPEDTAVYYCNAGYITYWYAVFYQIDDYWGQGTQVTVSS”, the “polyreactivity (PSR sort gate)” value was “low polyreactivity”.

For the sequence “QVHLVESGGGLVQAGRSLRLSCAASGSTFSYNAMGWSRQAPGKERELVAAISNGGSTNYADSVKGRFTISRDNAKYTVFLQMNSLKPEDTAVYYCAAHTYSELSWLVVYPYDYWGQGTQVTVSS”, the “polyreactivity (PSR sort gate)” value is listed as “low polyreactivity”. “QVQLVESGGGLVQAGGSLRLSCAASGSIFPPYAMGWYRPAPGKERELVAAINSGGSTNYADSVKGRFTISRDNAKNTVYLQMNSLIPEDTAVYYCNVDESYDWRTRKYDSWGQVTQVTVSS”: the “polyreactivity (PSR sort gate)” value is on record as “low polyreactivity”.

Take “QVQLVESGGGLVQAGGSLRLSCAASGRTLVWYTMGWYRQAPGKEREFVAVITTGSGSTYYADSVKGRFTISRDNAKNTVYLQMNSLKPEDTAVYYCNAGYGGYSYHYPPYEYWGQGTQVTVSS”: the “polyreactivity (PSR sort gate)” value was “low polyreactivity”. For the sequence “QVQLVESVGGLVQAGGSLRLSCAASGRILRTNALGWYRKAPGKERELVAAISSDGSTYYADSVKGRFTISRDNAKNTVYLQMNSLKPEDTAVYYCAARLFYRGPRFDYWGQGTQVTVSS”, the “polyreactivity (PSR sort gate)” value is recorded as “low polyreactivity”. The same measure for “QVQLVESCGGLVQAGGSLRLSCAASGLTYRYYAMGWYRKAPGKERELVAAITSSGTSTYYADSVKGRFTISRDNAKNTVSLQMNSLKAEDTAVSYCAVRQSQKYGLFYYGGQGTQVTVSS”: “high polyreactivity”; for “QVQLVESGGGLVQAGGSLRLSCAASGRTFTFYAMGWYRQAPGKERELVATISYSGGRTYYADSVKGRFTISRDNAKNTVYLQMNSLKPEDTAVYYCATSVSGPWWKLYYWGQGTQVTVSS”: “low polyreactivity”; for “QVQLVESGGGLVQAGGSLRLSCAASGSTFGVNAMGWYRQAPGKERELVATISRGTSTNYADSVKGRFTISRDNAKNTVYLQMHSLKPEDTAVYYCAKRVFYPGAYRYYYWGQGTQVTVSS”: “high polyreactivity”. With “QVQLVETVGCLVQAGGSLRLSSAASGRIFPYNAMGRYRQAPGKERELVAAIDWRDNTYYADSVKGRFTISRDNATNTVYLQMNSLIPEDTAVYDCNVDYTDYFLNKYDYWGQGTQVTVSS” the entry was “low polyreactivity”; with “QVQLVESGGGLVQAGGSLRLSCAASGSIFYSYAKGWYRQAPGKERELVAAISWDASTYFADSVKGRFTISRDNAKYSVYLQMNSLKPEDTAVYYCNADIPYYFVYDAYDYWGQGTQVTVSS”, “low polyreactivity”.

For “QVQLVESGGGLVQAGGSLRLSCAASGYIFRIYAMGWYRQAPGKERELVARISSGGGTNYADSVKGRFTISRDNAKNTVYLQMNSLKPEDTAVYYCNAGYGSQRGGVFFYRMGYWGQGTQVTVSS”, the “polyreactivity (PSR sort gate)” value is listed as “high polyreactivity”. The same measure for “QDQLVVSGGGLVHAGGSLRLSCAASGRIFHAYGMGWYRQAPGQERELVAAITWRGVSTYYADSVKGRFTISRDNAKNTVYLQMNSLKPEDTAVYYCAARVTPGRNGGGYWGQGTQVTVSS”: “high polyreactivity”; for “QVQLVESGGGLVQAGGSLRLSCAASGFTFYRYTMGWYRQAPGKERELVAAISRRGGRTYYADSVKGRFTISRDYAKNSVYLQMNSLKPEDTAVYYCAADSAAYVFGEAYDYWGKGTQVTVSS”: “high polyreactivity”; for “QVQLVESGGGLVQAGGSLRLSCAASGFIFEWNAMGWYRQAPGKERELVASITFGGGNTYYADSVKGRFTISRDNAKNTVYLQMNSLKPEDTAVYYCAADDGVTYRGIIFSYLGQGTQVTVSS”: “low polyreactivity”. The same measure for “QVQLVESGGGLVQAGGSLRLSCAASGSTFSYYAIGWYRQAPGKERELVAAISRRGGSTYYADSVKGRFTISRDNAKNTVYLQMNRLKPEDTAVYYCAADYYFSSRIEYYYWGQGTQVTVSS”: “high polyreactivity”; for “QVQLVESGGGLVQAGGSLRLSCAASGRTFPPYAMGWYRQAPGKERELVAAISRRAGTTYYADSVKGRFTISRDNAKNTVYLQMNSLKPEDTAVYYCAASDHYRWYVHRWEDPFYYWGQGTQVTVSS”: “low polyreactivity”; for “QVQLVESGGGLVQAGGSLRLSCAASGRISQIYAMGWYRQAPGTERELVASISSSGSRTYYADSVKGRFTISRDNAKNTVYLQMNSLKPEDTAVYYCAARWWARSNRYDYWGQGTQVTVSS”: “high polyreactivity”.

With “QVHLVESGGGLVQAGGSLRLSCADSGFTFRRYTMGWYRQAPGKERELVAVISASGGSTYYADSVKGRFTISRDNAKNTVYLQMNSLKPEDTAVYYCNTRAVVIGGDYWGQGTQVTVSS”, the “polyreactivity (PSR sort gate)” value is given as “high polyreactivity”. With “QVQLVESGGGLVQAGGSLRLSCAASGTIFSRNAMGWYRQAPGKERELVAAITGSGSSTYYADSVKGRFTISRDNAKNTVYLQMNSLKPEDTAVYYCNAARVYLSEWGQGTQVTVSS” the entry was “high polyreactivity”; with “QVQLVESGGGLVQAGGSLRLSCAASGFIFVVYAMGWYRQAPGKERELVATISSGGGTYYADSVKGRFTISRDNAKNTVYLQMNSLKPEDTAVYYCAARRRRLYHFGGNNYWGQGTQVTVSS”, “high polyreactivity”; with “QVQLVESGGGLVQAGGSLRLSCAASGFTFDYYDLGWYRQAPGKERELVAGITYSGGRTRYADSVKGRFTISRDNAKNTVYLQMNSLKPEDTSVDYCAARPGYPYRMNYWGQGTQVTVSS”, “low polyreactivity”. The same measure for “QVQLVESGGGLVQAGGSLRISCAASGYIFGTYAMGWYRQAPGKERELVAAISSTGRTYYADSVKGRFTISLDNAMNNVYLQMNRLKPEYTAVYYCAADVRTPSEGYDYWGQGTQVTVSS”: “high polyreactivity”.
